The values below come from the RNAGym collection of RNA variant scans (doi:10.7554/elife.80360).

B1: Twister Ribozyme (parent)
chain: AACACUGCCAAUGCCGGUCCCAAGCCCGGAUAAAAGUGGAGGGGGCGG

Variants of B1 are the subject of this data set. The experiment in a line: self-cleavage, relative activity (ratio to wild type); higher = more cleavage; co-transcriptional.
In the case of AACACUGCCAAUGCCGGUCCCAAGACCGGAUAAAAGUGGAGGGGGCCG, the self-cleavage was 0.0869.
AACACUGCCAAUGCCGGUCCCAAGCCCAGAUAAAAUUGGAGGGGGCGG: the self-cleavage is 0.15.
As to AACACUGCCAAUGACGGUCCCAAGCCCGGAUAAAAGUGUAGGGGGCGG, the self-cleavage amounted to 0.198.
Turning to AACACUGCCAAUGCCGGUCCCACGCCCGGAUACAAGUGGAGGGGGCGG, the self-cleavage worked out at 0.0964.
For AACCCUGCCAAUGCCGGUCCCAAGCCCGCAUAAAAGUGGAGGGGGCGG the value was 0.0879; for AACACUGCCAAUGCAGGUCCCAAGCCCGGAUAAAAGUGGACGGGGCGG, 0.16; for AACACUGCCAAUGCCGAUCCCAAGCCCGGAUAAAAGCGGAGGGGGCGG, 0.142.
For AACACUGCCCAUGCCGGUCCCAAGCCCGGAUAAAAGUGUAGGGGGCGG the value was 0.148; for AACACUGACAAUGCCGGUCCCAAGCCCGGAUAAAAGUGGAGGGGGGGG, 0.353.
The value for AACACUACCAAGGCCGGUCCCAAGCCCGGAUAAAAGUGGAGGGGGCGG was 0.381; that for AACACUGCGAAUGCCGGUCCCAAGCCCGGAUAAAAGUGGAGGGGGCGG was 0.733.
Consider AACACUGCCAAUGCCAGUGCCAAGCCCGGAUAAAAGUGGAGGGGGCGG, for which the self-cleavage is 0.172.
For AACACAGCCAAUGCCGGUCCCAAGCACGGAUAAAAGUGGAGGGGGCGG the value was 0.144; for AACACUGCCAAUGACGGUCCCAUGCCCGGAUAAAAGUGGAGGGGGCGG, 0.508.
For AACACUCCCAAUGCCGGUCCCAAGCCCGGAUAAAAGUUGAGGGGGCGG the value was 0.071; for AACACUGCCAAUGCCGGUCCCAAGCCCCGAUAAUAGUGGAGGGGGCGG, 0.567; for UACACUGCCAAUGCCGGUCCCAAGCCCGGAUAAAAGUGGAGGGAGCGG, 0.0502.
For AACACUGCCACUGCCAGUCCCAAGCCCGGAUAAAAGUGGAGGGGGCGG the value was 0.234; for AACGCUGCCAAUGCCGGUCCCAAGCCCGGAUAAAAGUCGAGGGGGCGG, 0.918.
Regarding AGCACUGCCAAUGCCGGUCCCGAGCCCGGAUAAAAGUGGAGGGGGCGG, the self-cleavage was 0.107.
For AACACUGCCAAUGCCGGUCCCAAGCCCGGAUAAAACUGGCGGGGGCGG, the self-cleavage is 0.15.
The value for AACACUGCCAAUGCCGGUUCCAAGCCCGGAUAAAAGUGGAGGGGGUGG was 0.907.
For AACACUGCCAAUGCCGGUCCCAAGCCCGGAUAAACGGGGAGGGGGCGG the value was 0.703; for AACACUGCCAUUGCCGGUCCCAAGCCCGGAUAAAAGUGGAUGGGGCGG, 0.889.
The value for AGCACUGCCAAUGCCGGUCCCAAGCCCGGAUAAAAGUGGAGGGGACGG was 0.338.
Take AACACUGCCAAUGCCGGUCCCAAGCCCUGACAAAAGUGGAGGGGGCGG: the self-cleavage stood at 0.946.
For UACACUGCCAAUGCCGGUCCCAAGCCCGGAUAAAAGUCGAGGGGGCGG the value was 0.0576; for AACACGGCCAAUGCCGGUCCCAAGCCCGGAUAAAAUUGGAGGGGGCGG, 0.0341.
The value for AACACUGCCAAUGCCGGUCCAAAGCCCGGAUCAAAGUGGAGGGGGCGG was 0.169; that for AACAAUGCCAAUGCCGGUCCCAAGCCCGGAUAAAAGUGGAGGGGGCAG was 0.523.
For AACACUGCCAAUCCCGGUCCCAAGCCCGGAUAAAAGUGGAGGGGGCGU the value was 0.217; for AACACUGCCAAUGCCUGUCCCAUGCCCGGAUAAAAGUGGAGGGGGCGG, 0.238.
For the variant AACACUGCCAAUGCCGGUCCCAAGCCCGGCUAAAAGUGGAGAGGGCGG, the self-cleavage was 0.129.
For AACACUGCCAAUGCCGCUUCCAAGCCCGGAUAAAAGUGGAGGGGGCGG the value was 0.105; for AACACUGGCAAUGCCGGUCCCAAGCACGGAUAAAAGUGGAGGGGGCGG, 0.0716; for AACACUGCCAAUCCCGGUCCCAAGCCCGGAUAAAAGUGAAGGGGGCGG, 0.118.
In the case of AACACUGCCAAUGCCGGUCCCAAGCCCGGAUAAAAGAGGAGGGGUCGG, the self-cleavage is 0.617.
For ACCACUGCCACUGCCGGUCCCAAGCCCGGAUAAAAGUGGAGGGGGCGG the value was 0.0419; for AACACUGCCAAAGCCGGUCCCAAGCCCGGAUAAAAGUAGAGGGGGCGG, 1.08.
For AACACUGCCAAUGCCGGUCGCAAGCCCGCAUAAAAGUGGAGGGGGCGG the value was 0.0469.
The value for AACACUGCCAAUGCCGGUCCCAAGCCCGGCUAAAAGUGGUGGGGGCGG was 0.0909.
In the case of AACACUGCCUAUGCCGGUCCCAAGCCCGGAUAAAAGUGGCGGGGGCGG, the self-cleavage turned out to be 0.305.
For AACACUGCCAAUGCCGGUCCCAACCCCGGAUAAAAGUGGAGGCGGCGG the value was 0.0497.
The value for AACACUGCCAAUGCCGGUCCCAAUCCCGGAUAAACGUGGAGGGGGCGG was 0.133.
Turning to AACACUGCCAAUGCCGGUCCCAAACCCGGAUAAAAGUGGAGGCGGCGG, the self-cleavage was 0.107.
For AACACUGCCGAUGCCGGUCCCAAGCCCGGAUAAACGUGGAGGGGGCGG the value was 1.17.
The value for AACACUGCCAAUGCCGGUCUAAAGCCCGGAUAAAAGUGGAGGGGGCGG was 0.115; that for AACACUGCCAAUGCAGGUCCCAAGCCCGGAUAUAAGUGGAGGGGGCGG was 0.541; that for AACACUGCCAAUUCAGGUCCCAAGCCCGGAUAAAAGUGGAGGGGGCGG was 0.11.
As for AACACUGCCAAUGCCGGUCCCAAGCCCGGAGAACAGUGGAGGGGGCGG, the self-cleavage was found to be 0.477.
For AGCACUGCCAAUGCCGGUACCAAGCCCGGAUAAAAGUGGAGGGGGCGG the value was 0.0723; for AACACUGCCAAUGCCGGUCCCAAGCCCGGAUAAACGUGGAGGGGGCGC, 1.08; for AACACUGCCUAUGCCUGUCCCAAGCCCGGAUAAAAGUGGAGGGGGCGG, 0.802.
With AACACUGCCAAUGCCGGUUCCAAGCCCGGAUAAAAGUGGCGGGGGCGG, the self-cleavage was determined as 0.152.
